Laboratory results as given in patent US20250320281A1.

How the values were obtained:
WT JR-FL gp120 (HIV-1) = assay: ELISA, antigen-coated wells
[1] = target: HIV-1 Env of pseudovirus isolate MGRM-G-019 (HIV-1); assay: cell-based or functional assay
[2] = target: HIV-1 Env of pseudovirus isolate MGRM-G-009 (HIV-1); assay: cell-based or functional assay
[3] = target: HIV-1 Env of pseudovirus isolate MGRM-G-013 (HIV-1); assay: cell-based or functional assay
[4] = target: HIV-1 Env of pseudovirus isolate MGRM-G-001 (HIV-1); assay: cell-based or functional assay
[5] = target: HIV-1 Env of pseudovirus isolate MGRM-G-027 (HIV-1); assay: cell-based or functional assay
[6] = target: HIV-1 Env of pseudovirus isolate MGRM-G-015 (HIV-1); assay: cell-based or functional assay
[7] = target: HIV-1 Env of pseudovirus isolate MGRM-G-006 (HIV-1); assay: cell-based or functional assay
[8] = target: HIV-1 Env of pseudovirus isolate MGRM-G-011 (HIV-1); assay: cell-based or functional assay
[9] = target: HIV-1 Env of pseudovirus isolate MGRM-G-016 (HIV-1); assay: cell-based or functional assay
[10] = target: HIV-1 Env of pseudovirus isolate MGRM-G-014 (HIV-1); assay: cell-based or functional assay
[11] = target: HIV-1 Env of pseudovirus isolate MGRM-G-017 (HIV-1); assay: cell-based or functional assay
[12] = target: HIV-1 Env of pseudovirus isolate MGRM-G-004 (HIV-1); assay: cell-based or functional assay
[13] = target: envelope of aMLV pseudovirus (negative control); assay: cell-based or functional assay
[14] = target: HIV-1 JRCSF Env (pseudovirus) (HIV-1) (UniProt P20871); assay: cell-based or functional assay
[15] = target: HIV-1 92UG024 Env (pseudovirus) (HIV-1); assay: cell-based or functional assay
[16] = target: HIV-1 NL43 Env (pseudovirus) (HIV-1); assay: cell-based or functional assay
[17] = target: HIV-1 APV6 Env (pseudovirus) (HIV-1); assay: cell-based or functional assay
[18] = target: HIV-1 CMU02 Env (pseudovirus) (HIV-1); assay: cell-based or functional assay
[19] = target: HIV-1 92TH021 Env (pseudovirus) (HIV-1); assay: cell-based or functional assay
[20] = target: HIV-1 MGRM-C-028 Env (pseudovirus) (HIV-1); assay: cell-based or functional assay
[21] = target: HIV-1 MGRM-C-027 Env (pseudovirus) (HIV-1); assay: cell-based or functional assay
[22] = target: HIV-1 92RW020 Env (pseudovirus) (HIV-1); assay: cell-based or functional assay
[23] = target: HIV-1 MGRM-A-010 Env (pseudovirus) (HIV-1); assay: cell-based or functional assay
[24] = target: HIV-1 92UG005 Env (pseudovirus) (HIV-1); assay: cell-based or functional assay
[25] = target: HIV-1 MGRM-D-018 Env (pseudovirus) (HIV-1); assay: cell-based or functional assay
[26] = target: HIV-1 MGRM-C-026 Env (pseudovirus) (HIV-1); assay: cell-based or functional assay
[27] = target: HIV-1 93IN905 Env (pseudovirus) (HIV-1); assay: cell-based or functional assay
[28] = target: HIV-1 94UG103 Env (pseudovirus) (HIV-1); assay: cell-based or functional assay

Sequence of 5345_I01 (PGT-137) (antibody) (VH): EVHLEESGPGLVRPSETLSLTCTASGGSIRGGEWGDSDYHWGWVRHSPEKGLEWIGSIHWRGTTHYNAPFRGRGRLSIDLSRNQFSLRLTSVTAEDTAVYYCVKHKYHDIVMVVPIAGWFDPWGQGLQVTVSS
Sequence of 5345_I01 (PGT-137) (antibody) (VL): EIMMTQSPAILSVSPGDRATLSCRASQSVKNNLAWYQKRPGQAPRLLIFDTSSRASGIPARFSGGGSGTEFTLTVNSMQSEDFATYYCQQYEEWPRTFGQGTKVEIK

5114_A19 (PGT-128) (antibody)
EC50 (WT JR-FL gp120 (HIV-1)): 0.1 µg/mL
IC50 (µg/mL), pseudovirus neutralization [1]: 0.01 µg/mL
IC50 (µg/mL), pseudovirus neutralization [2]: > 50 µg/mL
IC50 (µg/mL), pseudovirus neutralization [3]: 0.995 µg/mL
IC50 (µg/mL), pseudovirus neutralization [4]: 0.019 µg/mL
IC50 (µg/mL), pseudovirus neutralization [5]: 0.313 µg/mL
IC50 (µg/mL), pseudovirus neutralization [6]: > 50 µg/mL
IC50 (µg/mL), pseudovirus neutralization [7]: > 50 µg/mL
IC50 (µg/mL), pseudovirus neutralization [8]: 8.21 µg/mL
IC50 (µg/mL), pseudovirus neutralization [9]: > 50 µg/mL
IC50 (µg/mL), pseudovirus neutralization [10]: 0.004 µg/mL
IC50 (µg/mL), pseudovirus neutralization [11]: 0.319 µg/mL
IC50 (µg/mL), pseudovirus neutralization [12]: > 50 µg/mL
IC50 (µg/mL), pseudovirus neutralization [13]: > 50 µg/mL

5136_H01 (PGT-131) (antibody)
EC50 (WT JR-FL gp120 (HIV-1)): 0.4 µg/mL
IC50 (µg/mL), pseudovirus neutralization [1]: > 50 µg/mL
IC50 (µg/mL), pseudovirus neutralization [2]: > 50 µg/mL
IC50 (µg/mL), pseudovirus neutralization [3]: > 50 µg/mL
IC50 (µg/mL), pseudovirus neutralization [4]: 0.404 µg/mL
IC50 (µg/mL), pseudovirus neutralization [5]: 2.9 µg/mL
IC50 (µg/mL), pseudovirus neutralization [6]: > 50 µg/mL
IC50 (µg/mL), pseudovirus neutralization [7]: > 50 µg/mL
IC50 (µg/mL), pseudovirus neutralization [8]: > 50 µg/mL
IC50 (µg/mL), pseudovirus neutralization [9]: > 50 µg/mL
IC50 (µg/mL), pseudovirus neutralization [10]: 4.31 µg/mL
IC50 (µg/mL), pseudovirus neutralization [11]: > 50 µg/mL
IC50 (µg/mL), pseudovirus neutralization [12]: > 50 µg/mL
IC50 (µg/mL), pseudovirus neutralization [13]: > 50 µg/mL

5147_N06 (PGT-130) (antibody)
EC50 (WT JR-FL gp120 (HIV-1)): 0.2 µg/mL
IC50 (µg/mL), pseudovirus neutralization [1]: 27.9 µg/mL
Neutralization by PGT-130, IC50 [14]: 0.0089 µg/mL
Neutralization by PGT-130, IC80 [14]: 0.0317 µg/mL
Neutralization by PGT-130, IC90 [14]: 0.0669 µg/mL
Neutralization by PGT-130, IC95 [14]: 0.134 µg/mL
neutralization IC50 (pseudovirus) [14]: 0.0089 µg/mL
Neutralization by PGT-130, IC50 [15]: > 10 µg/mL
Neutralization by PGT-130, IC80 [15]: > 10 µg/mL
Neutralization by PGT-130, IC90 [15]: > 10 µg/mL
Neutralization by PGT-130, IC95 [15]: > 10 µg/mL
neutralization IC50 (pseudovirus) [15]: > 10 µg/mL
IC50 (µg/mL), pseudovirus neutralization [2]: > 50 µg/mL
IC50 (µg/mL), pseudovirus neutralization [3]: > 50 µg/mL
IC50 (µg/mL), pseudovirus neutralization [4]: 0.0198 µg/mL
IC50 (µg/mL), pseudovirus neutralization [5]: 4.14 µg/mL
Neutralization by PGT-130, IC50 [16]: > 10 µg/mL
Neutralization by PGT-130, IC80 [16]: > 10 µg/mL
Neutralization by PGT-130, IC90 [16]: > 10 µg/mL
Neutralization by PGT-130, IC95 [16]: > 10 µg/mL
neutralization IC50 (pseudovirus) [16]: > 10 µg/mL
Neutralization by PGT-130, IC50 [17]: > 10 µg/mL
Neutralization by PGT-130, IC80 [17]: > 10 µg/mL
Neutralization by PGT-130, IC90 [17]: > 10 µg/mL
Neutralization by PGT-130, IC95 [17]: > 10 µg/mL
neutralization IC50 (pseudovirus) [17]: > 10 µg/mL
Neutralization by PGT-130, IC50 [18]: > 10 µg/mL
Neutralization by PGT-130, IC80 [18]: > 10 µg/mL
Neutralization by PGT-130, IC90 [18]: > 10 µg/mL
Neutralization by PGT-130, IC95 [18]: > 10 µg/mL
neutralization IC50 (pseudovirus) [18]: > 10 µg/mL
Neutralization by PGT-130, IC50 [19]: 0.0082 µg/mL
Neutralization by PGT-130, IC80 [19]: 0.0261 µg/mL
Neutralization by PGT-130, IC90 [19]: 0.0513 µg/mL
Neutralization by PGT-130, IC95 [19]: 0.0963 µg/mL
neutralization IC50 (pseudovirus) [19]: 0.0082 µg/mL
Neutralization by PGT-130, IC50 [20]: > 10 µg/mL
Neutralization by PGT-130, IC80 [20]: > 10 µg/mL
Neutralization by PGT-130, IC90 [20]: > 10 µg/mL
Neutralization by PGT-130, IC95 [20]: > 10 µg/mL
neutralization IC50 (pseudovirus) [20]: > 10 µg/mL
IC50 (µg/mL), pseudovirus neutralization [6]: > 50 µg/mL
IC50 (µg/mL), pseudovirus neutralization [7]: > 50 µg/mL
Neutralization by PGT-130, IC50 [21]: 0.0052 µg/mL
Neutralization by PGT-130, IC80 [21]: 0.0318 µg/mL
Neutralization by PGT-130, IC90 [21]: 0.106 µg/mL
Neutralization by PGT-130, IC95 [21]: 0.464 µg/mL
neutralization IC50 (pseudovirus) [21]: 0.0052 µg/mL
IC50 (µg/mL), pseudovirus neutralization [8]: > 50 µg/mL
Neutralization by PGT-130, IC50 [22]: 0.014 µg/mL
Neutralization by PGT-130, IC80 [22]: 0.508 µg/mL
Neutralization by PGT-130, IC90 [22]: 3.68 µg/mL
Neutralization by PGT-130, IC95 [22]: > 10 µg/mL
neutralization IC50 (pseudovirus) [22]: 0.014 µg/mL
IC50 (µg/mL), pseudovirus neutralization [9]: > 50 µg/mL
Neutralization by PGT-130, IC50 [23]: 0.0054 µg/mL
Neutralization by PGT-130, IC80 [23]: 0.0251 µg/mL
Neutralization by PGT-130, IC90 [23]: 0.0643 µg/mL
Neutralization by PGT-130, IC95 [23]: 0.164 µg/mL
neutralization IC50 (pseudovirus) [23]: 0.0054 µg/mL
Neutralization by PGT-130, IC50 [24]: 0.474 µg/mL
Neutralization by PGT-130, IC80 [24]: > 10 µg/mL
Neutralization by PGT-130, IC90 [24]: > 10 µg/mL
Neutralization by PGT-130, IC95 [24]: > 10 µg/mL
neutralization IC50 (pseudovirus) [24]: 0.474 µg/mL
Neutralization by PGT-130, IC50 [25]: 0.0378 µg/mL
Neutralization by PGT-130, IC80 [25]: 0.289 µg/mL
Neutralization by PGT-130, IC90 [25]: 2.31 µg/mL
Neutralization by PGT-130, IC95 [25]: > 10 µg/mL
neutralization IC50 (pseudovirus) [25]: 0.0378 µg/mL
IC50 (µg/mL), pseudovirus neutralization [10]: 2.23 µg/mL
IC50 (µg/mL), pseudovirus neutralization [11]: > 50 µg/mL
Neutralization by PGT-130, IC50 [26]: 0.0173 µg/mL
Neutralization by PGT-130, IC80 [26]: 0.263 µg/mL
Neutralization by PGT-130, IC90 [26]: 1.32 µg/mL
Neutralization by PGT-130, IC95 [26]: 6.13 µg/mL
neutralization IC50 (pseudovirus) [26]: 0.0173 µg/mL
IC50 (µg/mL), pseudovirus neutralization [12]: > 50 µg/mL
Neutralization by PGT-130, IC50 [27]: 0.0182 µg/mL
Neutralization by PGT-130, IC80 [27]: 0.272 µg/mL
Neutralization by PGT-130, IC90 [27]: 1.31 µg/mL
Neutralization by PGT-130, IC95 [27]: 5.48 µg/mL
neutralization IC50 (pseudovirus) [27]: 0.0182 µg/mL
Neutralization by PGT-130, IC50 [28]: 0.635 µg/mL
Neutralization by PGT-130, IC80 [28]: > 10 µg/mL
Neutralization by PGT-130, IC90 [28]: > 10 µg/mL
Neutralization by PGT-130, IC95 [28]: > 10 µg/mL
neutralization IC50 (pseudovirus) [28]: 0.635 µg/mL
IC50 (µg/mL), pseudovirus neutralization [13]: > 50 µg/mL

5345_I01 (PGT-137) (antibody)
EC50 (WT JR-FL gp120 (HIV-1)): 0.1 µg/mL
IC50 (µg/mL), pseudovirus neutralization [1]: 0.126 µg/mL
IC50 (µg/mL), pseudovirus neutralization [2]: > 50 µg/mL
IC50 (µg/mL), pseudovirus neutralization [3]: > 50 µg/mL
IC50 (µg/mL), pseudovirus neutralization [4]: 41.7 µg/mL
IC50 (µg/mL), pseudovirus neutralization [5]: 0.228 µg/mL
IC50 (µg/mL), pseudovirus neutralization [6]: > 50 µg/mL
IC50 (µg/mL), pseudovirus neutralization [7]: > 50 µg/mL
IC50 (µg/mL), pseudovirus neutralization [8]: > 50 µg/mL
IC50 (µg/mL), pseudovirus neutralization [9]: > 50 µg/mL
IC50 (µg/mL), pseudovirus neutralization [10]: > 50 µg/mL
IC50 (µg/mL), pseudovirus neutralization [11]: 34.9 µg/mL
IC50 (µg/mL), pseudovirus neutralization [12]: > 50 µg/mL
IC50 (µg/mL), pseudovirus neutralization [13]: > 50 µg/mL
